Measurements from patent US20250163127A1.

B1: variant CD80 K36G/K37Q/M38I/L40M (Fc fusion)
chain: VIHVTKEVKEVATLSCGHNVSVEELAQTRIYWQKEGQIVMTMMSGDMNIWPEYKNRTIFDITNNLSIVILALRPSDEGTYECVVLKYEKDAFKREHLAEVTLSVKADFPTPSISDFEIPTSNIRRIICSTSGGFPEPHLSWLENGEELNAINTTVSQDPETELYAVSSKLDFNMTTNHSFMCLIKYGHLRVNQTFNWNTTKQEHFPDN
B2: variant CD80 E35D/L85Q/K93T/E95V/L97Q (Fc fusion)
chain: VIHVTKEVKEVATLSCGHNVSVEELAQTRIYWQKDKKMVLTMMSGDMNIWPEYKNRTIFDITNNLSIVILALRPSDEGTYECVVQKYEKDAFTRVHQAEVT
B3: variant CD80 E35D/T41S/M43V/M47I/L70M/A71G (Fc fusion)
chain: VIHVTKEVKEVATLSCGHNVSVEELAQTRIYWQKDKKMVLSMVSGDINIWPEYKNRTIFDITNNLSIVIMGLRPSDEGTYECVVLKYEKDAFKREHLAEVT
B4: variant CD80 V22A/E35D/M47I/Y87N (Fc fusion)
chain: VIHVTKEVKEVATLSCGHNVSAEELAQTRIYWQKDKKMVLTMMSGDINIWPEYKNRTIFDITNNLSIVILALRPSDEGTYECVVLKNEKDAFKREHLAEVT
B5: variant CD80 E35D/M47V/N48K/V68M/K89N (Fc fusion)
chain: VIHVTKEVKEVATLSCGHNVSVEELAQTRIYWQKDKKMVLTMMSGDVKIWPEYKNRTIFDITNNLSIMILALRPSDEGTYECVVLKYENDAFKREHLAEVT
B6: variant CD80 Q33L/E35D/M47I/N48D/A71G (Fc fusion)
chain: VIHVTKEVKEVATLSCGHNVSVEELAQTRIYWLKDKKMVLTMMSGDIDIWPEYKNRTIFDITNNLSIVILGLRPSDEGTYECVVLKYEKDAFKREHLAEVT
B7: variant CD80 Q27H/E35D/M47I/L85Q/D90G (Fc fusion)
chain: VIHVTKEVKEVATLSCGHNVSVEELAHTRIYWQKDKKMVLTMMSGDINIWPEYKNRTIFDITNNLSIVILALRPSDEGTYECVVQKYEKGAFKREHLAEVT
B8: variant CD80 R29H/E35D/M43V/M47I/I49V (Fc fusion)
chain: VIHVTKEVKEVATLSCGHNVSVEELAQTHIYWQKDKKMVLTMVSGDINVWPEYKNRTIFDITNNLSIVILALRPSDEGTYECVVLKYEKDAFKREHLAEVT
B9: variant CD80 E35D/M47I/T62S/L85Q (Fc fusion)
chain: VIHVTKEVKEVATLSCGHNVSVEELAQTRIYWQKDKKMVLTMMSGDINIWPEYKNRTIFDISNNLSIVILALRPSDEGTYECVVQKYEKDAFKREHLAEVT
B10: variant CD80 E35D/D46E/M47V/N63D/L85Q (Fc fusion)
chain: VIHVTKEVKEVATLSCGHNVSVEELAQTRIYWQKDKKMVLTMMSGEVNIWPEYKNRTIFDITDNLSIVILALRPSDEGTYECVVQKYEKDAFKREHLAEVT
B11: variant CD80 E35D/M47L/A71G/L85M/F92Y (Fc fusion)
chain: VIHVTKEVKEVATLSCGHNVSVEELAQTRIYWQKDKKMVLTMMSGDLNIWPEYKNRTIFDITNNLSIVILGLRPSDEGTYECVVMKYEKDAYKREHLAEVT
B12: variant CD80 E35D/D46E/M47V/V68M/D90G/K93E (Fc fusion)
chain: VIHVTKEVKEVATLSCGHNVSVEELAQTRIYWQKDKKMVLTMMSGEVNIWPEYKNRTIFDITNNLSIMILALRPSDEGTYECVVLKYEKGAFEREHLAEVT
B13: variant CD80 E35D/M47I/L85Q/D90G (Fc fusion)
chain: VIHVTKEVKEVATLSCGHNVSVEELAQTRIYWQKDKKMVLTMMSGDINIWPEYKNRTIFDITNNLSIVILALRPSDEGTYECVVQKYEKGAFKREHLAEVT
B14: variant PD-L2 IgV H15Q Fc fusion (Fc fusion)
chain: LFTVTVPKELYIIEQGSNVTLECNFDTGSHVNLGAITASLQKVENDTSPHRERATLLEEQLPLGKASFHIPQVQVRDEGQYQCIIIYGVAWDYKYLTLKVKA
B15: variant PD-L2 IgV H15Q/K65R Fc fusion (Fc fusion)
chain: LFTVTVPKELYIIEQGSNVTLECNFDTGSHVNLGAITASLQKVENDTSPHRERATLLEEQLPLGRASFHIPQVQVRDEGQYQCIIIYGVAWDYKYLTLKVKA
B16: variant PD-L2 IgV G28V/Q72H/R76G/I86T Fc fusion (Fc fusion)
chain: LFTVTVPKELYIIEHGSNVTLECNFDTVSHVNLGAITASLQKVENDTSPHRERATLLEEQLPLGKASFHIPHVQVGDEGQYQCIITYGVAWDYKYLTLKVKA
B17: variant PD-L2 IgV H15Q/V89D Fc fusion (Fc fusion)
chain: LFTVTVPKELYIIEQGSNVTLECNFDTGSHVNLGAITASLQKVENDTSPHRERATLLEEQLPLGKASFHIPQVQVRDEGQYQCIIIYGDAWDYKYLTLKVKA
B18: variant PD-L2 IgV I13V/E44D/Q82R/V89D Fc fusion (Fc fusion)
chain: LFTVTVPKELYIVEHGSNVTLECNFDTGSHVNLGAITASLQKVDNDTSPHRERATLLEEQLPLGKASFHIPQVQVRDEGQYRCIIIYGDAWDYKYLTLKVKA
B19: variant PD-L2 IgV V89D Fc fusion (Fc fusion)
chain: LFTVTVPKELYIIEHGSNVTLECNFDTGSHVNLGAITASLQKVENDTSPHRERATLLEEQLPLGKASFHIPQVQVRDEGQYQCIIIYGDAWDYKYLTLKVKA
B20: variant PD-L2 IgV H15Q/Q82R/V89D Fc fusion (Fc fusion)
chain: LFTVTVPKELYIIEQGSNVTLECNFDTGSHVNLGAITASLQKVENDTSPHRERATLLEEQLPLGKASFHIPQVQVRDEGQYRCIIIYGDAWDYKYLTLKVKA
B21: variant PD-L2 IgV H15Q/T47A Fc fusion (Fc fusion)
chain: LFTVTVPKELYIIEQGSNVTLECNFDTGSHVNLGAITASLQKVENDASPHRERATLLEEQLPLGKASFHIPQVQVRDEGQYQCIIIYGVAWDYKYLTLKVKA
B22: variant PD-L2 IgV S67L/I85F Fc fusion (Fc fusion)
chain: LFTVTVPKELYIIEHGSNVTLECNFDTGSHVNLGAITASLQKVENDTSPHRERATLLEEQLPLGKALFHIPQVQVRDEGQYQCIFIYGVAWDYKYLTLKVKA
B23: variant PD-L2 IgV E44D Fc fusion (Fc fusion)
chain: LFTVTVPKELYIIEHGSNVTLECNFDTGSHVNLGAITASLQKVDNDTSPHRERATLLEEQLPLGKASFHIPQVQVRDEGQYQCIIIYGVAWDYKYLTLKVKA
B24: variant PD-L2 IgV H15Q/S67L/R76G/I85F Fc fusion (Fc fusion)
chain: LFTVTVPKELYIIEQGSNVTLECNFDTGSHVNLGAITASLQKVENDTSPHRERATLLEEQLPLGKALFHIPQVQVGDEGQYQCIFIYGVAWDYKYLTLKVKA
B25: variant PD-L2 IgV N24D Fc fusion (Fc fusion)
chain: LFTVTVPKELYIIEHGSNVTLECDFDTGSHVNLGAITASLQKVENDTSPHRERATLLEEQLPLGKASFHIPQVQVRDEGQYQCIIIYGVAWDYKYLTLKVKA
B26: variant PD-L2 IgV H15Q/T47A/Q72H/R76G/I86T Fc fusion (Fc fusion)
chain: LFTVTVPKELYIIEQGSNVTLECNFDTGSHVNLGAITASLQKVENDASPHRERATLLEEQLPLGKASFHIPHVQVGDEGQYQCIITYGVAWDYKYLTLKVKA

Key:
[1] = target: PD-L1 (human); test: flow cytometry, cells expressing PD-L1
Sequence of PD-L1 (human) (chain, as listed by the source): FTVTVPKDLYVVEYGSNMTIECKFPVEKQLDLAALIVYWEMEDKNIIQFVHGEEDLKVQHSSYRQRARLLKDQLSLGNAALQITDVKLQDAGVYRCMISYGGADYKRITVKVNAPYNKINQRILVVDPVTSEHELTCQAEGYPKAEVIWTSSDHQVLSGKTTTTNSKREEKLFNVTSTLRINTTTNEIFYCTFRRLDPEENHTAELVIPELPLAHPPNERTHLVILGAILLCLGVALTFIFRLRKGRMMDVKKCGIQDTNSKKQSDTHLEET

[2] = target: CTLA-4 (human); test: flow cytometry, cells expressing CTLA-4
Sequence of CTLA-4 (human) (chain, as listed by the source): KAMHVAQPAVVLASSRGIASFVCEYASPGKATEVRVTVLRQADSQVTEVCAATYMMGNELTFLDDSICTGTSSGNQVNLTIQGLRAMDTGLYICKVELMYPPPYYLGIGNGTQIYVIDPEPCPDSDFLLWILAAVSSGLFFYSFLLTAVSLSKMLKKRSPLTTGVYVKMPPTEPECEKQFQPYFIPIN

[3] = target: CD28 (human) (UniProt P10747); test: flow cytometry, cells expressing CD28
[4] = target: CD28 (human) (UniProt P10747); test: flow cytometry, Jurkat cells (CD28)
[5] = target: PD-L1 (human); test: flow cytometry, CHO cells expressing PD-L1
[6] = target: CTLA-4 (human); test: flow cytometry, CHO cells expressing CTLA4
[7] = target: human PD-1 (human) (UniProt Q15116)
Sequence of human PD-1 (human) (Q15116 25-288): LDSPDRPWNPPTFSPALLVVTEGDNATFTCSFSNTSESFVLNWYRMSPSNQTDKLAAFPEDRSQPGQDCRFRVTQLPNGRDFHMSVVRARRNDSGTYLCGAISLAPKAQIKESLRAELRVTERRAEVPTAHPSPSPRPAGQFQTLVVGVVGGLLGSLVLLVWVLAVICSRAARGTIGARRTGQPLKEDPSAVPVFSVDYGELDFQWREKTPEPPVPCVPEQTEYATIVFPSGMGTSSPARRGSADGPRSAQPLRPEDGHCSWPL

[8] = target: PD-1-Fc (human) (UniProt Q15116); test: ForteBio Octet, PD-1 on anti-human capture sensor, 100 nM
Sequence of PD-1-Fc (human) (Q15116 25-167 limits assumed): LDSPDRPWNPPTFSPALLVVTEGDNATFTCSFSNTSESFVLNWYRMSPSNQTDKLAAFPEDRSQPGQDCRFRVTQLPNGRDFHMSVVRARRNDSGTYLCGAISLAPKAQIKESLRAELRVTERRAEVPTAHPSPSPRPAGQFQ

Row | Binder | Fold change to WT CD80 [4] [fold] | MFI at 33.3 nM [4] [MFI] | Fold change to WT CD80 [5] [fold] | MFI at 33.3 nM [5] [MFI] | Fold change to WT CD80 [6] [fold] | MFI at 33.3 nM [6] [MFI] | IFN gamma levels pg/mL (MLR) [7] [pg/mL] | Fortebio Response Units (Response Units) [8] | also measured
1 | B1 |  |  |  |  |  |  |  |  | MFI [1]: 959 MFI; parental ratio [1]: 0.05; MFI [2]: 1400 MFI; parental ratio [2]: 0.03; MFI [3]: 1170 MFI; parental ratio [3]: 0.09
2 | B2 | 0.02 | 400 | 1.67 | 19900 | 1.57 | 246000 |  |  | 
3 | B3 | 0.15 | 2700 | 1.09 | 13000 | 1.59 | 249000 |  |  | 
4 | B4 |  | 15300 |  |  |  | 246000 |  |  | 
5 | B5 | 0.65 | 11700 | 7.56 | 89800 | 0.01 | 807 |  |  | 
6 | B6 | 0.04 | 644 | 2.62 | 31200 | 0.74 | 117000 |  |  | 
7 | B7 | 0.19 | 3510 | 2.58 | 30700 | 1.64 | 258000 |  |  | 
8 | B8 | 0.02 | 336 | 0.13 | 1590 | 0.03 | 4690 |  |  | 
9 | B9 | 0.1 | 1760 | 3.79 | 45000 | 1.91 | 301000 |  |  | 
10 | B10 | 0.07 | 1330 | 5.88 | 69800 | 1.74 | 274000 |  |  | 
11 | B11 | 0.14 | 2460 | 3.93 | 46700 | 1.37 | 216000 |  |  | 
12 | B12 | 1.5 | 27100 | 6.06 | 71900 | 1.74 | 273000 |  |  | 
13 | B13 | 0.23 | 4100 | 3.01 | 35700 | 1.57 | 248000 |  |  | 
14 | B14 |  |  |  |  |  |  | 1820 | 0.007 | 
15 | B15 |  |  |  |  |  |  | 1510 | -0.001 | 
16 | B16 |  |  |  |  |  |  | 1780 | 0.003 | 
17 | B17 |  |  |  |  |  |  | 1500 | 0.31 | 
18 | B18 |  |  |  |  |  |  |  | 1.28 | 
19 | B19 |  |  |  |  |  |  | 1170 | 0.005 | 
20 | B20 |  |  |  |  |  |  | 1080 | 1.2 | 
21 | B21 |  |  |  |  |  |  | 1640 | 0.016 | 
22 | B22 |  |  |  |  |  |  | 1280 | -0.005 | 
23 | B23 |  |  |  |  |  |  | 1500 | -0.006 | 
24 | B24 |  |  |  |  |  |  | 1320 | 0.025 | 
25 | B25 |  |  |  |  |  |  | 1980 | -0.039 | 
26 | B26 |  |  |  |  |  |  | 1600 | 0.512 | 
